The text below walks through data of patent US10407638B2, “Production of alpha-olefins” (TOTAL RAFFINAGE CHIMIE, priority 2015, dated 2019).

Type in all cases: biochemical
Series [1] is described as follows: Fatty acid decarboxylation assay with purified Sm46-del29, GC. The procedure:
FIG. 6: In vitro conversion of free fatty acids into α-olefins by a truncated variant of Sm46: Sm46-del29. Conversion percentages of the free fatty acid substrates (A) and the corresponding α-alkene products (B) are shown.
The fatty acid decarboxylation assays containing 1.0 μM Sm46-del29, 200 μM fatty acid substrate (from C8 to C20), 220 μM H2O2 in 200 μl of storage buffer were carried out at 28° C. for 2 h. Reactions were quenched by the addition of 20 μl of 10 M HCl. Heptadecanoic acid was added as internal standard and the mixture was extracted by 200 μl ethyl acetate. Following extraction, the organic phase was collected and analyzed by gas chromatography as described below.
The GC analytical method for hydrocarbon and fatty acid samples was adapted from Guan et al. (2011 J Chromatogr A 1218:8289-8293). The analyses were performed on an Agilent 7890B gas chromatograph equipped with a capillary column HP-INNOWAX (Agilent Technologies, Santa Clara, Calif., USA; cross-linked polyethylene glycerol, i.d. 0.25 μm film thickness, 30 m by 0.25 mm). The helium flow rate was set to 1 ml per minute. The oven temperature was controlled initially at 40° C. for 4 min, then increased at the rate of 10° C. per min to 250° C., and held for 5 min. The injecting temperature was set to 280° C. with the injection volume of 1 μl under splitless injection conditions. The response factors between fatty acids and alkenes were determined by analyzing known authentic fatty acids (C10-C20), 1-alkenes (C9-C19) and 1-heptadecanoic acid standards as described in Liu et al. (2014 Biotechnol. Biofuels 7:28).

Series [2] is described as follows: Reaction of purified enzymes with C14 fatty acid, analysis of decarboxylation and hydroxylation products. The note with it: compared with Bs168 and Aa162; FIG. 7. The procedure:
FIG. 7: In vitro production of α-olefins by Aa162, Bs168 and Sm46-del29. Recombinantly expressed and purified enzyme (0.2 μM) was used in an in vitro assay for α-olefin biosynthesis in the presence of C14 fatty acid substrate. The conversion percentages are shown for, from left to right, C14 free fatty acid substrate, C13 α-olefin, α-hydroxy C14 fatty acid, β-hydroxy C14 fatty acid.
Recombinantly expressed and purified Bs168 and Aa162 from Example 1 and Sm46-del29 of Example 2 were reacted with C14 fatty acid and the products of decarboxylation (C13 α-olefin) and hydroxylation (α-OH—O14 fatty acid and β-OH—C14 fatty acid) reactions were analyzed.

Series [3] in a line: In vitro olefin biosynthesis assay with supernatant of E. coli lysates expressing the enzyme, GC/MS. Particulars: for fatty acid decarboxylase activity (α-olefin production): C12, C14 or C16 fatty acid substrate (1 mM), H2O2 500 μM. The procedure:
FIG. 4: In vitro production of α-olefins by OleTJE, Bs168, Aa162 and Sm46. Genes encoding OleTJ, Bs168, Aa162 and Sm46 were recombinantly expressed in E. coli. The supernatant of the E. coli lysates was used in an in vitro assay for α-olefin biosynthesis in the presence of C12, C14 or C16 fatty acid substrate (1 mM) and H2O2 (500 μM). C11, C13 and C15 α-olefin production by the different enzymes is indicated as the area under the gas chromatographic (GC) peak.
E. coli BL21(DE3) cells (Novagen) carrying a recombinant plasmid or an empty PET28a plasmid (control) were cultured for several cycles to ensure best growth state at 37° C. in 10 mL LB medium supplemented with 50 μg/ml of kanamycin, followed by inoculation (1:100 ratio) into 50 mL fresh Terrific Broth medium containing 50 μg/ml of kanamycin, 1 mM thiamine, 10% glycerol and a rare salt solution (6750 mg/l FeCl3, 500 mg/l ZnCl2, 500 mg/l CoCl2, 500 mg/l Na2MoO4, 250 mg/l CaCl2, 465 mg/l CuSO4, and 125 mg/l H31303) at 37° C. Cells were grown at 37° C. for 3 to 4 h until the optical density at 600 nm (OD600) reached 0.6 to 0.8, at which 0.2 or 0.4 mM isopropyl-β-D-thiogalactopyranoside (IPTG) and 0.5 mM 5-aminolevulinic acid were added, followed by 18 h of cultivation at 16° C.
Then, the cell cultures were recovered by centrifugation (at 4° C.) and re-suspended in 1.5 mL 50 mM Tris buffer, pH 7.5, containing 0.1 M NaCl. The re-suspended cell cultures were disrupted by sonication and centrifuged at 13,000×g for 30 min (4° C.). The supernatant was collected and the pellet was re-suspended in 1.5 mL 50 mM Tris buffer, pH 7.5, containing 0.1 M NaCl for further analysis. An SDS gel was run to check the expression of the genes using 15 μL of supernatant or pellet solution mixed with 5 μL of 4× loading buffer (FIG. 3).
In vitro olefin biosynthesis was evaluated by adding to the supernatant a fatty acid substrate in DMSO to a final concentration of 0.2 mM (1:100 dilution) or 1 mM (1:10 dilution), and 500 μM H2O2. The reaction mixture was incubated at 28° C. for 2-3 h, or stopped using 50 μL of 10 M HCl at t=0, 15, 30, 60 and 120 min for a dynamic test. Then, C16 fatty acid was added at a final concentration of 0.2 mM (1:100 dilution) as an internal standard. 300 μL reaction mixture of each reaction condition was extracted with equal volume of ethyl acetate, and the organic phase was analyzed for hydrocarbons by gas chromatography/mass spectrometry (GC/MS). In the meanwhile, undecene of different concentrations (0, 0.05 mM, 0.1 mM, 0.2 mM and 0.5 mM) were tested to produce a standard curve.

The mark [4] stands for this setting: C12, C14 or C16 fatty acid substrate, FIG. 4.

B1: Sm46-del29: truncated variant of Sm46 with the N-terminal 29 amino acids deleted, SEQ ID NO:13 (protein)
chain: AKKLPKVKGLDNTVDIIKGGYTYVPGKLEEFDSKAFEVRALGGKKIAVMSGKEAAEIFYDNEKMERQGTLPKRIVNTLFGKGAIHTTAGKKHVDRKALFMSLMTDENLNYLRELTRNYWFMNTERMQSMDKVNVYNESIYMLTKIGFRWAGIIQTPEEAEQNAKDMDTMINSFVSLGSAYKGYKKAKKARKRVEDFLEKQIIDVRKGKLHPEEGTALYEFAHWEDLNDNPMDSHLCAVDLMNVVRPLAAINRFISYGVKVLIEFDQEKEKLRLENNEDYAYKFAQEVRRIFPFVPYLPGRAAVDLEYDGYKIPAGMMTALDVYGTTHDEDLWENPDQFNPNRFDNWDGSPFDLIPQGGGDFYTNHRCAGEWITVIIMEETMKYFANKIEFDVPSQDLSVKLDKLPGNVTSGTIISNVRPRVARK
modifications: Sm46-del29
For B1, the decarboxylase activity entry in series [1] (1.0 μM enzyme, 200 μM fatty acid, 220 μM H2O2, 28° C., 2 h, FIG. 6) was “had decarboxylase activity”. Besides, the “decarboxylation of C10 free fatty acid” value in series [1] (C9 α-olefin not detected due to volatility) is “able to decarboxylate C10 free fatty acid”. The “substrate preference for α-olefin production” value in series [1] (among tested fatty acid substrates C8 to C20, FIG. 6) is “substrate preference for C12 free fatty acid”. The “formation of hydroxy fatty acids” value in series [2] is given as “formed less hydroxy fatty acids”.

B2: Sm46: olefin-producing enzyme from Staphilococcus massiliensis, SEQ ID NO:8 (protein, listed as Staphylococcus massiliensis)
chain: MFVDSILVLRLNLLKTGIQLEMKNGGIKVAKKLPKVKGLDNTVDIIKGGYTYVPGKLEEFDSKAFEVRALGGKKIAVMSGKEAAEIFYDNEKMERQGTLPKRIVNTLFGKGAIHTTAGKKHVDRKALFMSLMTDENLNYLRELTRNYWFMNTERMQSMDKVNVYNESIYMLTKIGFRWAGIIQTPEEAEQNAKDMDTMINSFVSLGSAYKGYKKAKKARKRVEDFLEKQIIDVRKGKLHPEEGTALYEFAHWEDLNDNPMDSHLCAVDLMNVVRPLAAINRFISYGVKVLIEFDQEKEKLRLENNEDYAYKFAQEVRRIFPFVPYLPGRAAVDLEYDGYKIPAGMMTALDVYGTTHDEDLWENPDQFNPNRFDNWDGSPFDLIPQGGGDFYTNHRCAGEWITVIIMEETMKYFANKIEFDVPSQDLSVKLDKLPGNVTSGTIISNVRPRVARK
Turning to B2, the “fatty acid decarboxylase activity (α-olefin production)” value in series [3] (FIG. 4) is “fatty acid decarboxylase activity”. The substrate preference result in series [3] (later experiments, data not shown) is on record as “substrate preference for C12 fatty acid substrate”.

B3: Bs168: P450BSβ fatty acid hydroxylase from Bacillus subtilis subsp. subtilis str. 168, SEQ ID NO:4 (protein, listed as Bacillus subtilis)
chain: MNEQIPHDKSLDNSLTLLKEGYLFIKNRTERYNSDLFQARLLGKNFICMTGAEAAKVFYDTDRFQRQNALPKRVQKSLFGVNAIQGMDGSAHIHRKMLFLSLMTPPHQKRLAELMTEEWKAAVTRWEKADEVVLFEEAKEILCRVACYWAGVPLKETEVKERADDFIDMVDAFGAVGPRHWKGRRARPRAEEWIEVMIEDARAGLLKTTSGTALHEMAFHTQEDGSQLDSRMAAIELINVLRPIVAISYFLVFSALALHEHPKYKEWLRSGNSREREMFVQEVRRYYPFGPFLGALVKKDFVWNNCEFKKGTSVLLDLYGTNHDPRLWDHPDEFRPERFAEREENLFDMIPQGGGHAEKGHRCPGEGITIEVMKASLDFLVHQIEYDVPEQSLHYSLARMPSLPESGFVMSGIRRKS
Turning to B3, the “fatty acid decarboxylase activity (α-olefin production)” value in series [3] (FIG. 4) was “fatty acid decarboxylase activity”. In addition, in series [3] (setting [4]), the substrate preference result is “preference for C12 fatty acid substrate”.

B4: OleTJE: P450 decarboxylase from Jeotgalicoccus sp. ATCC 8456, decarboxylates C12 to C20 free fatty acids to α-olefins (protein, listed as Jeotgalicoccus sp.)
chain: MATLKRDKGLDNTLKVLKQGYLYTTNQRNRLNTSVFQTKALGGKPFVVVTGKEGAEMFYNNDVVQREGMLPKRIVNTLFGKGAIHTVDGKKHVDRKALFMSLMTEGNLNYVRELTRTLWHANTQRMESMDEVNIYRESIVLLTKVGTRWAGVQAPPEDIERIATDMDIMIDSFRALGGAFKGYKASKEARRRVEDWLEEQIIETRKGNIHPPEGTALYEFAHWEDYLGNPMDSRTCAIDLMNTFRPLIAINRFVSFGLHAMNENPITREKIKSEPDYAYKFAQEVRRYYPFVPFLPGKAKVDIDFQGVTIPAGVGLALDVYGTTHDESLWDDPNEFRPERFETWDGSPFDLIPQGGGDYWTNHRCAGEWITVIIMEETMKYFAEKITYDVPEQDLEVDLNSIPGYVKSGFVIKNVREVVDRT
Regarding B4, the “fatty acid decarboxylase activity (α-olefin production)” value in series [3] (FIG. 4) was “fatty acid decarboxylase activity”.

B5: Aa162: decarboxylase (olefin-producing enzyme) from Alicyclobacillus acidocaldarius, SEQ ID NO:6 (protein, listed as Alicyclobacillus acidocaldarius)
chain: MNQCIPRDRTFDSSLALIKEGYLFIKNRVDQYQSDIFEARLLLENVVCMHGAEAAKLFYNTELFQRQGALPKRVQKTLFGENAIQTLDGTAHLHRKQLFLSLLTPDQEKSLATLATTQWRECAKVWENADRVVLFEEAKRMLCRIACQWTGVPLDESEVSKRADDFGAMVDAFGAVGPRHWKGRRARARAEAWLRQMIDEIRIGLRSVDEHTPLHVVAFWRDVNGNLLDAQMVAIELINLLRPIVAISTFITFSALALHEHPTWRDRLKARNEADIEMFVQEVRRYYPFAPFLGARVKKDFVWRGYEFKRGTLVLLDVYGTHHDARLWDSPNEFRPERFMRKTVGPFDLIPQGGGDSHTGHRCPGEGATIEIMKASVDFLVNQIDFEVPAQDLSYRLDVMPTLPKSGFVLTHVHRKFIASPTIATPNGSEALPSEV
Turning to B5, in series [3] (FIG. 4), the “fatty acid decarboxylase activity (α-olefin production)” value was “fatty acid decarboxylase activity”. For the same molecule, in series [3] (setting [4]), the substrate preference entry is “preference for C12 fatty acid substrate”.
